Experimental data: PMC8857485, “Prostate secretory protein 94 inhibits sterol binding and export by the mammalian CAP protein CRISP2 in a calcium-sensitive manner” (The Journal of Biological Chemistry, 2022)
Residue numbers refer to the chain shown, from its start. Names and notes keep the numbering of the source. Read-outs that look alike come from different tables or passages of the source.

Key:
cholesterol sulfate = assay: microscale thermophoresis; conditions: measurements in triplicates
[1] = target: T1, prostate secretory protein of 94 amino acids (PSP94), C-terminal polyhistidine tag (human, UniProt P08118 21-114); assay: MST
T1 chain: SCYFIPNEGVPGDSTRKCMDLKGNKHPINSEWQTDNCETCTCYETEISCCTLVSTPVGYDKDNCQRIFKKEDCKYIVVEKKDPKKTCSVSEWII

[2] = target: T1, prostate secretory protein of 94 amino …; assay: MST
[3] = tested on: sterol export by CAP proteins (Pry1, CRISP2, CRISP3); assay: In vivo sterol export assay ([14C]cholesteryl acetate export) in yeast; assay type: cell-based, Saccharomyces cerevisiae; conditions: co-expression with CRISP2 in quadruple mutant yeast
Source text: To test whether expression of PSP94 would affect the function of Pry1 in sterol export, we expressed PSP94 fused to the N-terminal signal sequence from Pry1 (amino acids 1–19) from a constitutive alcohol dehydrogenase promoter (ADH1) to direct the protein into the yeast secretory pathway. This PSP94-containing plasmid was then transformed into heme-deficient yeast cells lacking the sterol deacetylase Say1 (hem1Δ say1Δ). This strain is able to take up radiolabeled [^14C]cholesterol, acetylate it in an alcohol acetyltransferase 2 (Atf2)-dependent pathway, and secrete the resulting radiolabeled cholesteryl acetate back into the culture medium ([29]). […] To test whether expression of PSP94 would affect the synthesis or secretion of Pry1, CRISP2, or CRISP3, we coexpressed FLAG-tagged PSP94 with hemagglutinin (HA)-tagged Pry1, CRISP2, or CRISP3, separated yeast cells from the culture medium, precipitated proteins from both fractions with trichloroacetic acid (TCA), and detected the tagged proteins by Western blotting.
The sterol export assay was performed as described ([29]). […] Extracted radiolabeled lipids were quantified by scintillation counting, and volumes corresponding to 10,000 cpm (counts per minute) were dried. […] TLC plates were then exposed to phosphorimager screens, and radiolabeled lipids were visualized and quantified using a phosphorimager. […]

[4] = cholesterol sulfate titrated (x axis Cholesterol sulfate [µM])

Work on “CRISP2 (cysteine-rich secretory protein 2), C-terminal polyhistidine tag (from UniProt P16562) L98G; Y99P” yielded a Kd (cholesterol sulfate; in the presence of PSP94) of 0.5 µM and a Kd (cholesterol sulfate; [4]) of 2.2 µM.

In the case of “CRISP2 (cysteine-rich secretory protein 2), C-terminal polyhistidine tag (from UniProt P16562) N97P; L98G”, the Kd (cholesterol sulfate; [4]) is reported as 3.8 µM.

“CRISP2 (cysteine-rich secretory protein 2), C-terminal polyhistidine tag (from UniProt P16562) N97P; Y99P” was tested, and the Kd (cholesterol sulfate; [4]) was 2.7 µM.

B1: CRISP2 N97P L98G (protein)
chain: KDPAFTALLTTQLQVQREIVNKHNELRKAVSPPASNMLKMEWSREVTTNAQRWANKCTLQHSDPEDRKTSTRCGEPGYMSSDPTSWSSAIQSWYDEILDFVYGVGPKSPNAVVGHYTQLVWYSTYQVGCGIAYCPNQDSLKYYYVCQYCPAGNNMNRKNTPYQQGTPCAGCPDDCDKGLCTNSCQYQDLLSNCDSLKNTAGCEHELLKEKCKATCLCENKIY
modifications: limits not printed: mature chain by convention (pelB secretion in E. coli, C-terminal His tag left out); residue numbers match the precursor
With B1 the Kd [1] was 4 nM.

B2: CRISP3 (cysteine-rich secretory protein 3), C-terminal polyhistidine tag (natural protein)
chain: NEDKDPAFTALLTTQTQVQREIVNKHNELRRAVSPPARNMLKMEWNKEAAANAQKWANQCNYRHSNPKDRMTSLKCGENLYMSSASSSWSQAIQSWFDEYNDFDFGVGPKTPNAVVGHYTQVVWYSSYLVGCGNAYCPNQKVLKYYYVCQYCPAGNWANRLYVPYEQGAPCASCPDNCDDGLCTNGCKYEDLYSNCKSLKLTLTCKHQLVRDSCKASCNCSNSIY
modifications: RED-tris-NTA fluorescent label on the His tag
Molecule B2 has a Kd [2] of 46 nM.

B3: PSP94^F24G: point mutant version of PSP94 (F24 corresponds to F4 in the processed protein), impaired binding to CRISP3 (protein)
chain: T1 chain with F4G
modifications: left off: polyhistidine, C-terminal, state not stated
B3 was tested, and the “effect on sterol binding and export by CRISP2 in vivo” value [3] was “did not inhibit sterol binding and export”.

B4: CAP domain of Pry1 (Pry1^CAP), C-terminal polyhistidine tag (domain or fragment)
chain: SASSSDSDLSDFASSVLAEHNKKRALHKDTPALSWSDTLASYAQDYADNYDCSGTLTHSGGPYGENLALGYDGPAAVDAWYNEISNYDFSNPGFSSNTGHFTQVVWKSTTQVGCGIKTCGGAWGDYVICSYDPAGNYEGEYADNVEPLA
modifications: RED-tris-NTA fluorescent label on the His tag
Molecule B4 has a Kd [2] of 63 nM.
